Assay results as given in patent publication US6011146A, “Altered major histocompatibility complex (MHC) determinant and methods of using the determinant” (Institut Pasteur, priority 1995, dated 2000).
Values joined by “and” are separate entries in the source; they are usually repeats but may differ in a detail not shown here. Equal values may be shown once.

B1: influenza NPR- 147-158 (peptide)
peptide: TYQRTRALVTG

Legend:
[1] = molecular target: SC-K^d -15 (mouse) (UniProt P01887)
[2] = molecular target: K^d molecules isolated from the spleen of BALB/c mice (mouse, UniProt P01887); experiment: direct peptide binding assay, peptide coated on plastic, 125I-labeled K^d

| Molecule | cpm bound [1] | binding result [2] |
| --- | --- | --- |
| influenza NPR- 147-158 (peptide) | 214 cpm and 171 cpm |  |
| B1 |  | no binding (tested: 10 µg/ml; pH 9.6) |
